# Assay results from patent US20040063907A1 (published 2004).
# T1: C35 as expressed by cells or tissue (flow cytometry, immunohistochemistry) (human, UniProt Q9BRT3 2-112)
# T1 construct: also called endogenous C35
# T1 sequence: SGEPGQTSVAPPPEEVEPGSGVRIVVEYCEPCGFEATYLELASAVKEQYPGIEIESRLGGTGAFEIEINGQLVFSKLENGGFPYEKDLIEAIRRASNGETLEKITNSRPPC
# T2: C35 polypeptide, as expressed by human tumor cells and breast tumor tissue (human, UniProt Q9BRT3 2-112)
# T2 construct: 115 amino acid protein with a predicted prenylation motif CVIL at 112-115; It was detected on unfixed, non-permeabilized tumor cells and in paraffin sections; also called C35 protein; C35 antigen
# T2 sequence: T1 sequence
# T3: purified recombinant C35 protein generated in E. coli (human, UniProt Q9BRT3 1-115, limits assumed)
# T3 construct: also called hC35 protein; soluble C35 protein
# T3 sequence: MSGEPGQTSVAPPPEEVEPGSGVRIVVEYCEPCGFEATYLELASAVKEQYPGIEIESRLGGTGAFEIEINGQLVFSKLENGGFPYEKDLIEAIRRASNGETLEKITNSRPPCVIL
# T4: C35 protein, bacterially synthesized (recombinant human C35 purified from E. coli) (human, UniProt Q9BRT3 1-115, limits assumed)
# T4 construct: also called hC35; recombinant C35 protein
# T4 sequence: T3 sequence
# B1: monoclonal antibody of hybridoma clone 1F2 (antibody, V domains shown)
# VH: DVQLQESGPGLVKPSQSLSLTCSVTGYSITSGYFWNWIRQFPGNKLEWMGYISYDGSNNSNPSLKNRISFTRDTSKNQFFLKFNSVTTDDSAAYYCTRGTTGFAYWGQGTLVTVSA
# VL: QIVLTQSPAIMSASPGEKVTISCSASSSVSYMNWYQQKPGSSPKPWIYHTSNLASGVPARFSGSGSGTSYSLTISSMEAEDAATYYCQQYHSYPPTFGGGTKLEIK
# notes: also called IF2
# B2: 1B3 monoclonal antibody (antibody, mouse IgG1, V domains shown)
# VH: EVQLQESGPSLVKPSQTLSLTCSVTGDSITSGYWNWIRKFPGNKLEYVGYISYSGGTYYNPSLKSRISITRDTSKNHYYLQLNSVTTEDTATYYCARGAYYGGAFFPYFDVWGAGTTVTVSS
# VL: DVQITQSPSFLAASPGETITINCRASKYISKHLVWYQEKPGETKKLLIYSGSTLQSGLPSRFSGSGSGTDFTLTISSLEPEDFAMYYCQQHNEYPLTFGAGTKLELK
# notes: Mouse IgG1, tested as hybridoma supernatant
# B3: 3E10 monoclonal antibody (antibody, V domains shown)
# VH: B2 VH
# VL: B2 VL
# B4: 1E11 monoclonal antibody (antibody, mouse IgG1, V domains shown)
# VH: B1 VH
# VL: B1 VL
# notes: also called IE11
# B5: 1F2 monoclonal antibody (antibody, V domains shown)
# VH: B1 VH
# VL: B1 VL
# notes: Mouse IgG1 kappa; In the VL, one printed codon 'get' was read as gct; also called IF2
# B6: monoclonal antibody of hybridoma clone 1E11 (antibody, mouse IgG1, V domains shown)
# VH: B1 VH
# VL: B1 VL
# notes: Mouse IgG1 kappa, immunization BCA34.hC35; See the note of 1F2 for a translation; also called IE11
# Target: soluble HLA-B*0702 (human)
# Test: fluorescence polarization competition against the fluorescent labeled standard on soluble HLA-B*0702
row,Binder,% inhibition
1,NSRPPAVIL [C35 peptide N107 to L115 (analog with Ala substituted for Cys at 112)],68.2%
2,GAFEIEING (also called GAFEIEING) [C35 peptide G63 to G71],51.4%
3,EPGQTSVAP [C35 peptide E4 to P12],54.6%
4,ITNSRPPAV [C35 peptide I105 to V113 (analog with Ala substituted for Cys at 112)],45.2%
5,KITNSRPPA [C35 peptide K104 to A112 (analog with Ala substituted for Cys at 112)],69.4%
6,TGAFEIEIN (also called TGAFEIEIN) [C35 peptide T62 to N70],38.8%

# Target: T1, C35 as expressed by cells or tissue …
# Test: immunohistochemistry of breast tumour sections
row,Binder,binding result
1,B1,binds

# Target: T5, Beta galactosidase (negative control protein purified from E. coli) (UniProt P00722 1-1024 = β-galactosidase, limits assumed)
# T5 construct: also called β-galactosidase; p-galactosidase
# T5 sequence (P00722 whole entry): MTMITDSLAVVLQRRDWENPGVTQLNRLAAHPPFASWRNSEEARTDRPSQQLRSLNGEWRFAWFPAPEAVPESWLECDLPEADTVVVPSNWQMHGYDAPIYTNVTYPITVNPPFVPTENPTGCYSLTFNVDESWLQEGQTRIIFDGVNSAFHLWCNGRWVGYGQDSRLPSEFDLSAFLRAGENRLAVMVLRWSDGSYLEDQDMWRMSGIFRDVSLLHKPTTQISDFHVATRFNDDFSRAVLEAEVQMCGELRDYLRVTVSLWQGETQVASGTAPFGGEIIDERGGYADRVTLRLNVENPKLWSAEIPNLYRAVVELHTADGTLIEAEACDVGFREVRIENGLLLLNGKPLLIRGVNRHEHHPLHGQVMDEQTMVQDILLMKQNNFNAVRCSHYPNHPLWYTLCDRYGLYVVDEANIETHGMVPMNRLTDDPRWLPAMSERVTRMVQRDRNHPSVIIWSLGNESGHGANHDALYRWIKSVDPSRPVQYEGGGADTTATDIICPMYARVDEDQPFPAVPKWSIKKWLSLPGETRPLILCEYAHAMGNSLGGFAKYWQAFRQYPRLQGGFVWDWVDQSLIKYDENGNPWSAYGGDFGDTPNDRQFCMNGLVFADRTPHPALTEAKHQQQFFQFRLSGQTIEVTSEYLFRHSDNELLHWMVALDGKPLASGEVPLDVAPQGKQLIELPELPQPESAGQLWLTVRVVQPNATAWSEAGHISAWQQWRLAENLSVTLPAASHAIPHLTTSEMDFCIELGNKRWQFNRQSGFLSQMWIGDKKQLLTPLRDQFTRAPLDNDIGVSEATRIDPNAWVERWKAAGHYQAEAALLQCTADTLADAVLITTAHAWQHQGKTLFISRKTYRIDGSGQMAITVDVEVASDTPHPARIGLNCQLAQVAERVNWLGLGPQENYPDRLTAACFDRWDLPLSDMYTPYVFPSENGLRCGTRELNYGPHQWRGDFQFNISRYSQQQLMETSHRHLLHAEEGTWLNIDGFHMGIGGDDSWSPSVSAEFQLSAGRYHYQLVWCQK
# Test: ELISA, hybridoma supernatant on coated protein, anti-mouse HRP
row,Binder,binding result
1,B2,no binding
2,B3,no binding
3,B4,no binding
4,B5,no binding

# Target: T2, C35 polypeptide, as expressed by human …
# Test: immunohistochemistry on paraffin sections, affinity purified antibody
row,Binder,binding result
1,B5,binds

# Target: T3, purified recombinant C35 protein …
# Test: ELISA, hybridoma supernatant on coated C35 protein, anti-mouse HRP
row,Binder,binding result
1,B4,binds
2,B5,binds

# Target: HLA-A*0201 (human)
# Test: fluorescence polarization competition, test peptide at 100 uM against the fluorescent-labeled peptide on HLA-A*0201, from Ymax
row,Binder,% inhibition
1,ITNSRPPCV [C35 peptide I105 to V113],86.4%
2,FEIEINGQL [C35 peptide F65 to L73],74.8%
3,SGVRIVVEY [C35 peptide S21 to Y29],90.8%
4,TYLELASAV [C35 peptide T38 to V46],47.3%
5,SVAPPPEEV [C35 peptide S9 to V17],96.9%
6,GTGAFEIEI [C35 peptide G61 to I69],46.5%

# Target: T4, C35 protein, bacterially synthesized …
# Test: ELISA screen of hybridoma supernatants on plates coated with C35 protein
row,Binder,binding result
1,B6,binds
2,B1,binds
